What was measured:
[1] = target: the molecule itself; assay: filament reconstitution seen by electron microscopy; protein incubated without DNA under the same conditions as the filament reconstitution; kind of microscopy not told
[2] = target: the molecule itself; assay: cryo-EM structure; ICP8 double filament reconstituted with linear dsDNA carrying long ssDNA tails (T4 polymerase-treated); single-particle analysis of filament segments, 3.2 Å; DNA could not be built into the map

B1: BALF2, DNA-binding protein of Epstein-Barr Virus (natural protein)
chain: MQGAQTSEDNLGSQSQPGPCGYIYFYPLATYPLREVATLGTGYAGHRCLTVPLLCGITVEPGFSINVKALHRRPDPNCGLLRATSYHRDIYVFHNAHMVPPIFEGPGLEALCGETREVFGYDAYSALPRESSKPGDFFPEGLDPSAYLGAVAITEAFKERLYSGNLVAIPSLKQEVAVGQSASVRVPLYDKEVFPEGVPQLRQFYNSDLSRCMHEALYTGLAQALRVRRVGKLVELLEKQSLQDQAKVAKVAPLKEFPASTISHPDSGALMIVDSAACELAVSYAPAMLEASHETPASLNYDSWPLFADCEGPEARVAALHRYNASLAPHVSTQIFATNSVLYVSGVSKSTGQGKESLFNSFYMTHGLGTLQEGTWDPCRRPCFSGWGGPDVTGTNGPGNYAVEHLVYAASFSPNLLARYAYYLQFCQGQKSSLTPVPETGSYVAGAAASPMCSLCEGRAPAVCLNTLFFRLRDRFPPVMSTQRRDPYVISGASGSYNETDFLGNFLNFIDKEDDGQRPDDEPRYTYWQLNQNLLERLSRLGIDAEGKLEKEPHGPRDFVKMFKDVDAAVDAEVVQFMNSMAKNNITYKDLVKSCYHVMQYSCNPFAQPACPIFTQLFYRSLLTILQDISLPICMCYENDNPGLGQSPPEWLKGHYQTLCTNFRSLAIDKGVLTAKEAKVVHGEPTCDLPDLDAALQGRVYGRRLPVRMSKVLMLCPRNIKIKNRVVFTGENAALQNSFIKSTTRRENYIINGPYMKFLNTYHKTLFPDTKLSSLYLWHNFSRRRSVPVPSGASAEEYSDLALFVDGGSRAHEESNVIDVVPGNLVTYAKQRLNNAILKACGQTQFYISLIQGLVPRTQSVPARDYPHVLGTRAVESAAAYAEATSSLTATTVVCAATDCLSQVCKARPVVTLPVTINKYTGVNGNNQIFQAGNLGYFMGRGVDRNLLQAPGAGLRKQAGGSSMRKKFVFATPTLGLTVKRRTQAATTYEIENIRAGLEAIISQKQEEDCVFDVVCNLVDAMGEACASLTRDDAEYLLGRFSVLADSVLETLATIASSGIEWTAEAARDFLEGVWGGPGAAQDNFISVAEPVSTASQASAGLLLGGGGQGSGGRRKRRLATVLPGLEV
notes: also called EBV BALF2; source: insect cells, purified
- binding result [1]: binds

B2: ICP8, full-length (Herpes Simplex Virus 1 DNA-binding protein) (natural protein)
chain: METKPKTATTIKVPPGPLGYVYARACPSEGIELLALLSARSGDSDVAVAPLVVGLTVESGFEANVAVVVGSRTTGLGGTAVSLKLTPSHYSSSVYVFHGGRHLDPSTQAPNLTRLCERARRHFGFSDYTPRPGDLKHETTGEALCERLGLDPDRALLYLVVTEGFKEAVCINNTFLHLGGSDKVTIGGAEVHRIPVYPLQLFMPDFSRVIAEPFNANHRSIGEKFTYPLPFFNRPLNRLLFEAVVGPAAVALRCRNVDAVARAAAHLAFDENHEGAALPADITFTAFEASQGKTPRGGRDGGGKGAAGGFEQRLASVMAGDAALALESIVSMAVFDEPPTDISAWPLFEGQDTAAARANAVGAYLARAAGLVGAMVFSTNSALHLTEVDDAGPADPKDHSKPSFYRFFLVPGTHVAANPQVDREGHVVPGFEGRPTAPLVGGTQEFAGEHLAMLCGFSPALLAKMLFYLERCDGAVIVGRQEMDVFRYVADSNQTDVPCNLCTFDTRHACVHTTLMRLRARHPKFASAARGAIGVFGTMNSMYSDCDVLGNYAAFSALKRADGSETARTIMQETYRAATERVMAELETLQYVDQAVPTAMGRLETIITNREALHTVVNNVRQVVDREVEQLMRNLVEGRNFKFRDGLGEANHAMSLTLDPYACGPCPLLQLLGRRSNLAVYQDLALSQCHGVFAGQSVEGRNFRNQFQPVLRRRVMDMFNNGFLSAKTLTVALSEGAAICAPSLTAGQTAPAESSFEGDVARVTLGFPKELRVKSRVLFAGASANASEAAKARVASLQSAYQKPDKRVDILLGPLGFLLKQFHAAIFPNGKPPGSNQPNPQWFWTALQRNQLPARLLSREDIETIAFIKKFSLDYGAINFINLAPNNVSELAMYYMANQILRYCDHSTYFINTLTAIIAGSRRPPSVQAAAAWSAQGGAGLEAGARALMDAVDAHPGAWTSMFASCNLLRPVMAARPMVVLGLSISKYYGMAGNDRVFQAGNWASLMGGKNACPLLIFDRTRKFVLACPRAGFVCAASSLGGGAHESSLCEQLRGIISEGGAAVASSVFVATVKSLGPRTQQLQIEDWLALLEDEYLSEEMMELTARALERGNGEWSTDAALEVAHEAEALVSQLGNAGEVFNFGDFGCEDDNATPFGGPGAPGPAFAGRKRAFHGDDPFGEGPPDKKGDLTLDML
notes: also called full-length ICP8 form; source: insect cells, purified
- binding result [2]: binds

From doi:10.1101/2025.06.25.661518, “Structural insights into DNA annealing and recombination by herpesviral DNA-binding proteins ICP8 and BALF2” (bioRxiv, 2025)
